These results are taken from US20240369485A1, “FLUORESCENT SENSOR FOR MONITORING CALCIUM DYNAMICS” (priority 2021, published 2024).

What is called Kd is a measure of binding affinity in units of concentration.

A short description of assay [1]: Calcium (Ca^2+) binding assay: fluorescence/absorbance titration of purified protein. Here is the method: Calcium (Ca^2+) binding assay. 10 μM protein samples of mApple, EGFP, and mCherry variants were titrated with different concentrations of Ca^2+. Data were fitted with a 1:1 binding equation. Fluorescence intensities were collected using a Spectrofluorimeter (Photon Technology International, Inc.) and the absorbance values of Ca^2+-free and Ca^2+-loaded forms were determined using a Shimadzu UV-1601 spectrophotome.
Ca^2+ binding assay. Fluorescence measurements of mApple variants with increasing Ca^2+ concentrations were done in order to obtain the affinity of the sensor for Ca^2+ in vitro. Samples of 10 μM mApple variants with 5 μM EGTA were prepared in triplicate in 1 mL volumes in 10 mM Tris, pH 7.4. The samples were placed in quartz fluorescence cuvettes, and metal ion was titrated into each sample, in a stepwise manner, using 0.1 M and 1 M metal stock solutions. The fluorescence response of the indicator to increasing Ca^2+ concentrations was monitored using a fluorescence spectrophotometer (Photon Technology International, Canada) with the Felix32 fluorescence analysis software. The absorbance spectra before and after titration were obtained using a Shimadzu UV-1601 spectrophotometer.

The next assay has as its system HeLa cells. In words: Epifluorescence imaging of mitochondria Ca^2+ dynamics. Type of assay: cell-based. Conditions: 100 μM histamine. Here is the method: Cell culture and transfection. HeLa cells were cultured and maintained in DMEM supplemented with 10% FBS and high glucose (4.5 g/L) at 37° C. Individual plasmids were transfected into cells using Lipofectamine 3000 (Life Technologies), following the manufacturer's instructions. Seed cells onto sterilized 22 mm×40 mm glass microscope slides in 6 cm dishes until about 70% confluency, the day of transfection. The next day, 2 μg of plasmid were mixed with transfection reagent in the reduced serum media Opti-MEM for 4-6 h at 37° C. The media was then replaced with 3 mL of fresh DMEM and incubated at 37° C. for 48 h.
Epifluorescence imaging of mitochondria Ca^2+ dynamics. The coverslips with HeLa Cells transfected with mitochondria indicators were mounted on a bath chamber and placed on the stage of a Leica DM6100B inverted microscope with a Hamamatsu cooled EM-CCD camera and illuminated with a Till Polychrome V Xenon lamp. Cells were illuminated at 569 nm, in real-time. Fluorescence images of samples were recorded as the concentration of ER Ca^2+ was perturbed by perfusion of 100 μM histamine.

B1: mApple A145E/K198D/R216E: mApple variant, SEQ ID NO: 25; starting point of mitochondria indicator (protein)
chain: EENNMAIIKEFMRFKVHMEGSVNGHEFEIEGEGEGRPYEAFQTAKLKVTKGGPLPFAWDILSPQFMYGSKVYIKHPADIPDYFKLSFPEGFRWERVMNFEDGGIIHVNQDSSLQDGVFIYKVKLRGTNFPSDGPVMQKKTMGWEESEERMYPEDGALKSEIKKRLKLKDGGHYAAEVKTTYKAKKPVQLPGAYIVDIDLDIVSHNEDYTIVEQYEEAEGRHSTGGMDELYK
Consider B1, for which the Fmax/Fmin in assay [1] (EGFP and mApple variants) is 3.80. Further, in assay [1] (absorbance at 569), the Aholo/Aapo is reported as 1.60 (569). The dissociation constant (Kd) in assay [1] (in vitro, purified protein, read-out: Kd for Ca^2+ binding) was determined as 290 ± 20 µM. Also, in the assay on HeLa cells, the “fluorescence intensity change of mitochondria targeted indicator” value is listed as “no fluorescence change was observed”.
